Molecular target: T1, maize αβ RIP β fragment (maize)
T1 chain: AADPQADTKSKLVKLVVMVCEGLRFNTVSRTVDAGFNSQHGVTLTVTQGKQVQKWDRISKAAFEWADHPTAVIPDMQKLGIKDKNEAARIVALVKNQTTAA
Test: reverse phase and ion exchange chromatography

B1: maize αβ RIP α fragment (other)
chain: KRIVPKFTEIFPVEDANYPYSAFIASVRKDVIKHCTDHKGIFQPVLPPEKKVPELWFYTELKTRTSSITLAIRMDNLYLVGFRTPGGVWWEFGKDGDTHLLGDNPRWLGFGGRYQDLIGNKGLETVTMGRAEMTRAVNDLAKKKK
binding result: binds
